Measurements: patent publication US20140370024A1 (IMPERIAL INNOVATIONS, published 2014)

Molecular target: T1, gC1qR, the receptor of the globular part of the complement protein C1q, from rat brain membrane fractions (rat, UniProt O35796 72-279)
T1 construct: also called ~30 kDa band
T1 sequence (looked up): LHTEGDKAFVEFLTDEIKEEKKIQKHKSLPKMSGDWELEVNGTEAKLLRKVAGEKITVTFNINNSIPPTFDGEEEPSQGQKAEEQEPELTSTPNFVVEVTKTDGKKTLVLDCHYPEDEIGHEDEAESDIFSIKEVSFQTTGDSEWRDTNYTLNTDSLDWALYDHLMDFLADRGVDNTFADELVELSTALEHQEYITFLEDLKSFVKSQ
Experiment: chemical cross-linking to rat brain membrane fraction, Tricine-PAGE, Western blot with streptavidin-HRP; band identified as gC1q-R by LC-MS/MS
Procedure: The reaction was terminated using 50 mM Tris buffer, and samples were ethanol precipitated and resolved using Tricine-PAGE and visualised by Western blot analysis by streptavidin-horse radish peroxidase. A clear band at ˜30 kDa (indicated by an arrow) was observed following chemical crosslinking using biotinylated TLQP-21., which was many orders of magnitude greater than the corresponding band in the membrane control lane using unconjugated Sulfo-EMCS cross-linker. b, Membrane fractions of P4 rat brain was applied to either monomeric avidin column attached with TLQP-21 or monomeric avidin column only (“Negative control”). Following considerable washes, proteins bound to the columns were eluted and resolved on SDS-PAGE, followed by silver staining. A ˜30 kDa band (arrow) was apparent in the elutant from the TLQP-21-attached column. C, The ˜30 kDa band was analysed by LC-MS/MS Orbitrap following trypsinisation.
Ccl11 has been linked to inflammation²³, while Cxcl9 is known as a natural antagonist to Ccl11 receptor CCR3²⁴. We then used Sulfo-EMCS-conjugated TLQP-21 to purify and identify receptor(s) for TLQP-21. […] The membrane fractions of rat brain was incubated with the crosslinker-conjugated TLQP-21, and analysed by Tricine-PAGE and Western blotting using Streptavidin-HRP for the biotin tag on TLQP-21.

B1: Sulfo-EMCS cross-linker-conjugated biotinylated TLQP-21 (peptide)
peptide: TLQPPASSRRRHFHHALPPARC
modifications: biotin covalently attached via the amide bond at the N-terminus; Sulfo-EMCS cross-linker conjugated via the sulphydryl group of the extra cysteine at the C-terminus
notes: Used for chemical cross-linking to rat membrane fractions; also called crosslinker-conjugated TLQP-21; Sulfo-EMCS-conjugated TLQP-21
Q: Does B1 bind?
A: binds
